Substitutions are numbered along the chain they refer to. Numbers in names are those of the source. Like-named read-outs stand apart in the source and are kept apart here.
Columns and labels:
human IL-12 [1] = biological target: T1, human IL-12 (human, UniProt P29459 23-219; P29460 23-328); test: cell-based or functional assay
T1 sequence (looked up) 1: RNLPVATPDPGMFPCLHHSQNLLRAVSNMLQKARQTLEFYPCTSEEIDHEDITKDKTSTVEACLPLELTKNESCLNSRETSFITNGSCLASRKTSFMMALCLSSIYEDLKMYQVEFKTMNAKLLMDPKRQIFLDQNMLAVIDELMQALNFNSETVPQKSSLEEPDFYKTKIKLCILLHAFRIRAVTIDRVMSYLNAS
T1 sequence (looked up) 2: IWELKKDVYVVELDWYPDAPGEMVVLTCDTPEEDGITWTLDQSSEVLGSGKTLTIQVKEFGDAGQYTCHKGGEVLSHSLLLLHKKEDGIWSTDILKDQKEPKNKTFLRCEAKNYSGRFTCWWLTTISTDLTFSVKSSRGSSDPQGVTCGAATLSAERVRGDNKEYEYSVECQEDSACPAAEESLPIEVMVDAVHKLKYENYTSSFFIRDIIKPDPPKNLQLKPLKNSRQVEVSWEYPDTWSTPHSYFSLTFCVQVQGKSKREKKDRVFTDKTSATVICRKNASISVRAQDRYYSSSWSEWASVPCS

recombinant human IL-18 [2] = biological target: T2, recombinant human IL-18 (human, UniProt Q14116 37-193); test: cell-based or functional assay
human IL-12 [3] = biological target: T1, human IL-12; test: SPR (BIAcore)
Procedure: (§1) The BIAcore® assay (BIAcore®, Inc, Piscataway, N.J.) determines the affinity of antibodies with kinetic measurements of on-rate and off-rate constants. Binding of antibodies to a target antigen (for example, a purified recombinant target antigen) is determined by surface plasmon resonance-based measurements with a BIAcore® 1000 or 3000 instrument (BIAcore® AB, Uppsala, Sweden) using running HBS-EP (10 mM HEPES [pH 7.4], 150 mM NaCl, 3 mM EDTA, and 0.005% surfactant P20) at 25° C. […] Unreacted moieties on the biosensor surface are blocked with ethanolamine. Modified carboxymethyl dextran surface in flowcell 2 and 4 is used as a reaction surface. Unmodified carboxymethyl dextran without goat anti-mouse IgG in flow cell 1 and 3 is used as the reference surface. For kinetic analysis, rate equations derived from the 1:1 Langmuir binding model are fitted simultaneously to association and dissociation phases of all eight injections (using global fit analysis) with the use of Biaevaluation 4.0.1 software. Purified antibodies are diluted in HEPES-buffered saline for capture across goat anti-mouse IgG specific reaction surfaces. […] The association and dissociation rate constants, kₒₙ (M⁻¹s⁻¹) and koff (s⁻¹), are determined under a continuous flow rate of 25 μl/minute. Rate constants are derived by making kinetic binding measurements at different antigen concentrations ranging from 10-200 nM. The equilibrium dissociation constant (M) of the reaction between antibodies and the target antigen is then calculated from the kinetic rate constants by the following formula: KD=koff/kₒₙ. Binding is recorded as a function of time and kinetic rate constants are calculated.

recombinant human IL-18 [4] = biological target: T2, recombinant human IL-18; test: SPR (BIAcore)
Procedure: as §1

Recombinant Human IL-1β [5] = biological target: T3, Recombinant Human IL-1β (human, UniProt P01584 117-269); test: SPR (BIAcore); *off-rate at the limit of dissociation after 1 hour
T3 construct: also called IL-1b
Procedure: The BIAcore® assay (BIAcore®, Inc, Piscataway, N.J.) determines the affinity of antibodies with kinetic measurements of on-rate and off-rate constants. Binding of antibodies to a target antigen (for example, a purified recombinant target antigen) is determined by surface plasmon resonance-based measurements with a BIAcore® 1000 or 3000 instrument (BIAcore® AB, Uppsala, Sweden) using running HBS-EP (10 mM HEPES [pH 7.4], 150 mM NaCl, 3 mM EDTA, and 0.005% surfactant P20) at 25° C. […] Unreacted moieties on the biosensor surface are blocked with ethanolamine. Modified carboxymethyl dextran surface in flowcell 2 and 4 is used as a reaction surface. Unmodified carboxymethyl dextran without goat anti-mouse IgG in flow cell 1 and 3 is used as the reference surface. […] The association and dissociation rate constants, kₒₙ (M⁻¹s⁻¹) and koff (s⁻¹), are determined under a continuous flow rate of 25 μl/minute. […] The equilibrium dissociation constant (M) of the reaction between antibodies and the target antigen is then calculated from the kinetic rate constants by the following formula: KD=koff/kₒₙ. Binding is recorded as a function of time and kinetic rate constants are calculated.

Recombinant Human IL-1β [6] = biological target: T3, Recombinant Human IL-1β; test: cell-based or functional assay
Recombinant Human IL-1β [7] = biological target: T3, Recombinant Human IL-1β; test: SPR (BIAcore)
Procedure: as §1

biotin-labeled c-Met [8] = biological target: T4, biotin-labeled c-Met (UniProt P08581 25-932, limits assumed, biotin-labeled); test: ELISA, biotin-labeled c-Met detected with streptavidin-HRP; parental full antibody
T4 sequence (P08581 25-932 limits assumed): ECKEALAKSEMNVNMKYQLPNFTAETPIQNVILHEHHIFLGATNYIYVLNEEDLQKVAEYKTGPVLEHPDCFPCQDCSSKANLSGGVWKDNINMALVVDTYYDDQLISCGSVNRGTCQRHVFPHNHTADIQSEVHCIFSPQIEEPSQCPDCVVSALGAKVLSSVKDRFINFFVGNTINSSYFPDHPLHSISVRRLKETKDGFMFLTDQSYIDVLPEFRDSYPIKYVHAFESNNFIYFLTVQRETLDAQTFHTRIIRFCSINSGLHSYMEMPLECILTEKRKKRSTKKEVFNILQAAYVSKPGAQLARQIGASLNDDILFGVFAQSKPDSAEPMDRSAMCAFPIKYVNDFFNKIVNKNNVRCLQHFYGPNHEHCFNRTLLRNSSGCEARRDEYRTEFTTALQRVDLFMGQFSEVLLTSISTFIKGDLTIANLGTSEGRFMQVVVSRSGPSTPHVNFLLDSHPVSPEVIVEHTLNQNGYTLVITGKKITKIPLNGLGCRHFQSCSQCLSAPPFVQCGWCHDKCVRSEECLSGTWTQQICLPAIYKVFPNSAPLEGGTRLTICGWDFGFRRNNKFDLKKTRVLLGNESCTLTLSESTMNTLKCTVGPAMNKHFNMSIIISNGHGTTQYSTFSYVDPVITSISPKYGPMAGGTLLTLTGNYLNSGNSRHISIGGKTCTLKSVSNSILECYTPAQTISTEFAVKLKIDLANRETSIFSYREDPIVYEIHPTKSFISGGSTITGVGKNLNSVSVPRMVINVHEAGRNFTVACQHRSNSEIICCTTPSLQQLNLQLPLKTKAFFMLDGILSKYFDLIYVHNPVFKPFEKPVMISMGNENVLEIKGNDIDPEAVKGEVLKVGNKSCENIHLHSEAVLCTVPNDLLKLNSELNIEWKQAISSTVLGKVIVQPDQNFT
Procedure: (§2) c-Met binding ELISA was performed to characterize the antigen binding property of anti-c-Met half-Igs. 96-well ELISA plates were coated with 100 μl/well 5 μg/ml anti-mouse IgG Fc in PBS at 4° C. overnight. After 3 washes with PBS/0.05% Tween®20, the plates were blocked with 5% milk in PBS for 1 hour at room temperature. After another 3 washes with PBS/0.05% Tween®20, 100 μl c-Met antibody or half-Ig was added to each well followed by an incubation of 1 hour at room temperature. Binding biotin-labeled c-Met was detected by Streptavidin-horseradish peroxidase (KPL, Gaithersburg, Md.) and tetramethylbenzidine (Thermo Scientific, Rockford, Ill.). Final absorbances were acquired at 450 nm after stopping the reactions with 2 mol/L H₂SO₄.

[9] = biological target: T5, Neonatal Fc receptor (FcRn) on CHO-FcRnGPI cells; test: flow cytometry on CHO-FcRnGPI cells, pH 6.4
T5 construct: whole, on cells; also called FcRn receptor
T5 sequence (P55899 24-297, chain 1 of 2): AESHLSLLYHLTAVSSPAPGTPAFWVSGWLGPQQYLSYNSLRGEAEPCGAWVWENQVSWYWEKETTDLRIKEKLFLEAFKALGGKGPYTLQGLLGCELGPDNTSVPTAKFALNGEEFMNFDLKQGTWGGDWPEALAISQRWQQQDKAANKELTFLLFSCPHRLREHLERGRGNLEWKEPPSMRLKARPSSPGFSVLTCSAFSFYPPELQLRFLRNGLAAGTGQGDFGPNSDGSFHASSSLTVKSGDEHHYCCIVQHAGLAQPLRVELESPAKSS
T5 sequence (P61769 21-119, chain 2 of 2, further chain): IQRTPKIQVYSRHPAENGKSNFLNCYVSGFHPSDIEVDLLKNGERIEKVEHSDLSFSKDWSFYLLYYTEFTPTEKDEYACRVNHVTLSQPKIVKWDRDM
Procedure: (§3) CHO-FcRnGPI cells (Stable FcRn receptor expressor) and CHO-pBudl l cells (non-FcRn expressor) were aliquotted into 96-well plates at 1×10⁵ cells/well. Cells were resuspended in 150 μl FACS buffer. Anti-c-Met Ab and half-Ig binding proteins were diluted to 100 μg/ml in FACS buffer pH 6.4 and pH 7.4. 30 μl of diluted antibody or half-Ig binding protein was added to each well and incubated on ice for 1 hour. Following 2 washes with FACS buffer, 50 μl of secondary antibody R-phycoerythrin-conjugated AfiniPure F(ab′)₂ Fragment goat anti-human IgG (Jackson ImmunoResearch®, West Grove, Pa.) diluted in FACS buffer pH 6.4 or pH7.4 was added. The mixture was incubated for 30 min on ice. The cells were resuspended in 100 μl PBS with 1% FBS (Invitrogen®, Carlsbad, Calif.) and 2 μg/ml propidium iodide (Invitrogen®, Carlsbad, Calif.) of the corresponding pH. Final FACS data were acquired on a FACScan (Becton Dickinson, Franklin Lakes, N.J.).

biotin-labeled c-Met [10] = biological target: T4, biotin-labeled c-Met; test: ELISA, biotin-labeled c-Met detected with streptavidin-HRP; half-Ig (cMet-Mut6)
Procedure: as §2

[11] = biological target: T5, Neonatal Fc receptor (FcRn) on …; test: flow cytometry on CHO-FcRnGPI cells, pH 6.4; remark: listed apart in the source
Procedure: as §3

B1: ½ IL12/IL18/PGE2 TVD (other)
heavy: EVTLRESGPALVKPTQTLTLTCTFSGFSLSKSVMGVSWIRQPPGKALEWLAHIYWDDDKYYNPSLKSRLTISKDTSKNQVVLTMTNMDPVDTATYYCARRGIRSAMDYWGQGTTVTVSSASTKGPEVQLVQSGTEVKKPGESLKISCKGSGYTVTSYWIGWVRQMPGKGLEWMGFIYPGDSETRYSPTFQGQVTISADKSFNTAFLQWSSLKASDTAMYYCARVGSGWYPYTFDIWGQGTMVTVSSASTKGPEVQLVQSGAEVKKPGASVKVSCKASGYTFTKYWLGWVRQAPGQGLEWMGDIYPGYDYTHYNEKFKDRVTLTTDTSTSTAYMELRSLRSDDTAVYYCARSDGSSTYWGQGTLVTVSSASTKGPSVFPLAPSSKSTSGGTAALGCLVKDYFPEPVTVSWNSGALTSGVHTFPAVLQSSGLYSLSSVVTVPSSSLGTQTYICNVNHKPSNTKVDKKVEPKSCDKTHTSPPSPAPELLGGPSVFLFPPKPKDTLMISRTPEVTCVVVDVSHEDPEVKFNWYVDGVEVHNAKTKPREEQYNSTYRVVSVLTVLHQDWLNGKEYKCKVSNKALPAPIEKTISKAKGQPREPQVYTLPPSREEMTKNQVSLTCLVKGFYPSDIAVEWESNGQPENNYKTTPPVLDSDGSFRLYSKLTVDKSRWQQGNVFSCSVMHEALHNHYTQKSLSLSPGK
light: DIVMTQSPDSLAVSLGERATINCKASQSVSNDVAWYQQKPGQPPKLLIYYASNRYTGVPDRFSGSGSGTDFTLTISSLQAEDVAVYYCQQDYNSPWTFGGGTKVEIKRTVAAPEIVMTQSPATLSVSPGERATLSCRASESISSNLAWYQQKPGQAPRLFIYTASTRATDIPARFSGSGSGTEFTLTISSLQSEDFAVYYCQQYNNWPSITFGQGTRLEIKRTVAAPDVLMTQTPLSLPVTPGEPASISCTSSQNIVHSNGNTYLEWYLQKPGQSPQLLIYKVSNRFSGVPDRFSGSGSGTDFTLKISRVEAEDVGVYYCFQVSHVPYTFGGGTKVEIKRTVAAPSVFIFPPSDEQLKSGTASVVCLLNNFYPREAKVQWKVDNALQSGNSQESVTEQDSKDSTYSLSSTLTLSKADYEKHKVYACEVTHQGLSSPVTKSFNRGEC
notes: Half TVD with hCg1-Mut18 (F405R, C226S, C229S); 78 % by SEC; also called Half IL12/IL18/PGE2 TVD; IL12/IL18/PGE2 TVD half-Ig
- Neutralization of IL-12 IC50 (nM); IFN-γ release from PHA blast cells (human IL-12 [1]): 12.5 nM
- Neutralization of IL-18 IC50 (nM); IFN-γ release from KG-1 cells (recombinant human IL-18 [2]): 0.918 nM
- Kd (human IL-12 [3]): 0.00013 µM
- koff (human IL-12 [3]): 5.1e-05 s⁻¹
- kon (human IL-12 [3]): 400000 M⁻¹ s⁻¹
- Kd (recombinant human IL-18 [4]): 0.00044 µM
- koff (recombinant human IL-18 [4]): 5.9e-05 s⁻¹
- kon (recombinant human IL-18 [4]): 130000 M⁻¹ s⁻¹

B2: ½ IL1b DA1 Fc (Fc fusion)
chain: EVQLLESGGGLVQPGGSLRLSCAASGFTFADEGMMWVRQAPGKGLEWVSRITYSGKNTYYADSVKGRFTISRDNSKNTLYLQMNSLRAEDTAVYYCAKYTGRILGHHLFDYWGQGTLVTVSSEPKSSDKTHTSPPSPAPELLGGPSVFLFPPKPKDTLMISRTPEVTCVVVDVSHEDPEVKFNWYVDGVEVHNAKTKPREEQYNSTYRVVSVLTVLHQDWLNGKEYKCKVSNKALPAPIEKTISKAKGQPREPQVYTLPPSREEMTKNQVSLTCLVKGFYPSDIAVEWESNGQPENNYKTTPPVLDSDGSFRLYSKLTVDKSRWQQGNVFSCSVMHEALHNHYTQKSLSLSPGK
notes: Half domain antibody-Fc with Fc-Mut18; 82 % half-Ig by SEC; also called half IL1b DA1 Fc
- koff (Recombinant Human IL-1β [5]): 6.4e-06 s⁻¹
- IL-1β Neutralization Assay EC50 nM; IL-8 release from MRC5 cells (Recombinant Human IL-1β [6]): 0.155 nM
- Kd (Recombinant Human IL-1β [7]): 53 pM
- kon (Recombinant Human IL-1β [7]): 120000 M⁻¹ s⁻¹

B3: Anti-c-Met Ig (parental 5D5 anti-cMet antibody) (antibody, human IgG1, kappa)
heavy: not shown
light: DFMMSQSPSSLTVSVGEKVTVSCKSSQSLLYTSSQKNYLAWYQQKPGQSPKLLIYWASTRESGVPDRFTGSGSGTDFTLTITSVKADDLAVYYCQQYYAYPWTFGGGTKLELKRTVAAPSVFIFPPSDEQLKSGTASVVCLLNNFYPREAKVQWKVDNALQSGNSQESVTEQDSKDSTYSLSSTLTLSKADYEKHKVYACEVTHQGLSSPVTKSFNRGEC
notes: Mouse 5D5 variable domains cloned into human Cg1 (z, non-a) and human Ck vectors; also called cMet mAb; wild-type c-Met antibody
- EC50 (biotin-labeled c-Met [8]): 0.00036 µM
- EC50 [9]: 0.0518 µM

B4: cMet-Mut6 half-Ig binding protein (antibody)
heavy: QVQLQQSGPELVRPGASVKMSCRASGYTFTSYWLHWVKQRPGQGLEWIGMIDPSNSDTRFNPNFKDKATLNVDRSSNTAYMLLSSLTSADSAVYYCATYGSYVSPLDYWGQGTSVTVSSASTKGPSVFPLAPSSKSTSGGTAALGCLVKDYFPEPVTVSWNSGALTSGVHTFPAVLQSSGLYSLSSVVTVPSSSLGTQTYICNVNHKPSNTKVDKKVEPKSSDKTHTSPPCPAPELLGGPSVFLFPPKPKDTLMISRTPEVTCVVVDVSHEDPEVKFNWYVDGVEVHNAKTKPREEQYNSTYRVVSVLTVLHQDWLNGKEYKCKVSNKALPAPIEKTISKAKGQPREPQVYTLPPSREEMTKNQVSLTCLVKGFYPSDIAVEWESNGQPENNYKTTPAVLDSDGSFRLRSDLTVDKSRWQQGNVFSCSVMHEALHNHYTQKSLSLSPGK
light: B3 light
notes: Half-Ig; CH3 P395A, F405R, Y407R, K409D; 100 % half-Ig by SEC; also called cMetHC-Mut6
- EC50 (biotin-labeled c-Met [10]): 0.00046 µM

B5: cMet-Mut1 (antibody, human IgG1, kappa)
heavy: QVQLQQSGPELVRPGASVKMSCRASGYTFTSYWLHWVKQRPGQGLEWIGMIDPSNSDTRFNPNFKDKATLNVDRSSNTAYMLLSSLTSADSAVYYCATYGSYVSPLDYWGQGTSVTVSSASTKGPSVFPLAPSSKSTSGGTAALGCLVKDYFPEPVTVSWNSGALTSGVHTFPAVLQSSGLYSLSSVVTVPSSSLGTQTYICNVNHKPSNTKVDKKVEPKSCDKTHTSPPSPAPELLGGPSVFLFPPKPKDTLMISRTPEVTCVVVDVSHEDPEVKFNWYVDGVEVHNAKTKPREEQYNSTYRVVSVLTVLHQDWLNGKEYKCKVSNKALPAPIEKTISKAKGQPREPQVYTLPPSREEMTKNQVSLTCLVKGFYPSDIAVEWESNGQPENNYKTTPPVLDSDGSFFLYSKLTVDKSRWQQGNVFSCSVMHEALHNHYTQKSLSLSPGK
light: B3 light
notes: also called cMetHC-Mut1
- EC50 [11]: 1.09 µM

B6: cMet-Mut3 (antibody, human IgG1, kappa)
heavy: B4 heavy with S222C, C231S, T368F, L370F
light: B3 light
notes: Half-Ig; CH3 T366F, L368F, P395A, F405R, Y407R, K409D; 82.4 % half-Ig by SEC; also called cMetHC-Mut3
- EC50 [11]: 1.13 µM

B7: cMet-Mut5 (antibody, human IgG1, kappa)
heavy: B4 heavy with S222C, C231S
light: B3 light
notes: Half-Ig; CH3 P395A, F405R, Y407R, K409D; 97.2 % half-Ig by SEC; also called cMetHC-Mut5
- EC50 [11]: 3290 µM

B8: cMet-Mut10 (antibody, human IgG1, kappa)
heavy: B4 heavy with S222C, C231S, R409Y
light: B3 light
notes: Half-Ig; CH3 P395A, F405R, K409D; 97.5 % half-Ig by SEC; also called cMetHC-Mut10; cMet half Ig mut10
- EC50 [11]: 293 µM

B9: cMet-Mut11 (antibody, human IgG1, kappa)
heavy: B4 heavy with S222C, C231S, R409Y, D411K
light: B3 light
notes: Half-Ig; CH3 P395A, F405R; 94.8 % half-Ig by SEC; also called cMetHC-Mut11; cMet half Ig mut11
- EC50 [11]: 4700 µM

B10: cMet-Mut13 (antibody, human IgG1, kappa)
heavy: B4 heavy with S222C, C231S, R407F, R409Y
light: B3 light
notes: Half-Ig; CH3 P395A, K409D; 94.9 % half-Ig by SEC; also called cMetHC-Mut13
- EC50 [11]: 0.63 µM

B11: cMet-Mut14 (antibody, human IgG1, kappa)
heavy: B4 heavy with S222C, C231S, A398P, D411K
light: B3 light
notes: Half-Ig; CH3 F405R, Y407R; 96.1 % half-Ig by SEC; also called cMetHC-Mut14; cMet half Ig mut14
- EC50 [11]: 1.45 µM

B12: cMet-Mut18 (antibody, human IgG1, kappa)
heavy: B4 heavy with S222C, C231S, A398P, R409Y, D411K
light: B3 light
notes: Half-Ig; CH3 F405R; 94.5 % half-Ig by SEC; also called cMetHC-Mut18; cMet half Ig mut18
- EC50 [11]: 1980 µM

B13: cMet-Mut19 (antibody, human IgG1, kappa)
heavy: B4 heavy with S222C, C231S, A398P, R407F, D411K
light: B3 light
notes: Half-Ig; CH3 Y407R; 94.4 % half-Ig by SEC; also called cMetHC-Mut19
- EC50 [11]: 2.98 µM

B14: cMet-Mut20 (antibody, human IgG1, kappa)
heavy: B4 heavy with S222C, C231S, A398P, R407F, R409Y
light: B3 light
notes: Half-Ig; CH3 K409D; 91.7 % half-Ig by SEC; also called cMetHC-Mut20
- EC50 [11]: 1.23 µM

B15: cMet-Mut18-QL (antibody, human IgG1, kappa)
heavy: B4 heavy with S222C, C231S, T252Q, A398P, R409Y, D411K, M430L
light: B3 light
notes: also called cMetHC-Mut18-QL
- EC50 [9]: 0.035 µM

B16: cMet-Mut18-GTv2 (antibody, human IgG1, kappa)
heavy: B4 heavy with S222C, C231S, T309A, E382A, A398P, R409Y, D411K, N436A
light: B3 light
notes: also called cMetHC-Mut18-GTv2
- EC50 [9]: 0.015 µM

B17: ½ IL1b DA2 Fc (Fc fusion)
chain: B2 chain with D31E, G33S, M34W, T52G, Y53Q, S54D, A61R, D62E, S63D, L104M
notes: Half domain antibody-Fc with Fc-Mut18; 83 % half-Ig by SEC; also called half IL1b DA2 Fc
- koff (Recombinant Human IL-1β [5]): 4.9e-06 s⁻¹
- Kd (Recombinant Human IL-1β [7]): 28 pM
- kon (Recombinant Human IL-1β [7]): 170000 M⁻¹ s⁻¹

Source: US20120201746A1 (AbbVie / Abbott, published 2012)
